The values below come from article PMC12808100, “The non-catalytic DNA polymerase ε subunit is an NPF motif recognition protein” (Nature Communications, 2025).

Assay [1] deals with His6-avi-MBP-tagged POLE2. Kind of assay: Single-point nHU-MS with recombinant His6-avi-MBP-POLE2 bait, Jurkat extract. In kind it is binding, human. To be noted: significant apparent affinity of endogenous prey protein for POLE2 bait; single-point nHU-MS; Figure S11. An excerpt: So far, our study only focused on a few hand-picked NPF motifs and studied them as short synthetic peptides. However, many other proteins may be present in the proteome that could bind to POLE2 and their putative NPF motifs are embedded in their natural structures that can greatly affect their binding properties. To investigate interactions between POLE2 and intact, full length proteins proteome-wide, we used nHU-MS experiments with recombinant His6-avi-MBP-tagged POLE2 as bait and purified His6-avi-MBP as a control. Even though we are aware that this recombinant POLE2 may bind to NPF motifs with a somewhat altered affinity, we assumed that this would affect all NPF motif-mediated interactions equally, allowing an unbiased affinity ranking of all identified partners. Single point nHU measurements were performed at 26 μM POLE2 concentration and the recovered supernatant was measured by label free proteomic MS measurements (Fig. 3A, Supplementary Figs. 8A, 9, Supplementary Data 1).
Single-point nHU experiments with protein baits were carried out nearly identically with two key modifications. First, the resin saturation step was carried out by mixing 50 μl streptavidin resin with 0.5−1 ml 50 μM biotinylated protein solution and the mixture was incubated for 1.5 h at 4 °C with constant agitation. Second, instead of using estimated bait concentrations, we measured it experimentally. An extra aliquot of resin stock was prepared alongside the nHU samples that were identically processed that were used to eluate the immobilized proteins under harsh conditions, in order to experimentally quantify the Cbait by using densitometry of Coomassie stained SDS-PAGE that included a protein calibration series. For this, 50 μl bait-saturated resin aliquots were mixed with 200 μl 4x Laemmli Sample Buffer (120 mM Tris-HCl pH 7, 8% SDS, 100 mM DTT, 32% glycerol, 0.004% bromphenol blue, 1% β-mercaptoethanol), instead of cell extract. After 15 min incubation at 95 °C, these samples were analyzed by SDS-PAGE using protein calibration standard, made from recombinant MBP. Densitometry was carried out after Coomassie staining on raw Tif images by using Fiji ImageJ 1.53c and experimental bait concentration were determined by adjusting for molecular weight differences between MBP and MBP-POLE2 constructs.
Samples were digested overnight at 37 °C.

Assay [2] deals with POLE2 WT. Kind of assay: Proximity labeling MS, MAC3-tagged POLE2 WT in Flp-In T-REx 293 cells. Format: cell-based, human. To be noted: bait POLE2_WT.
Assay [3] concerns POLE2 Y311F. Description: Proximity labeling MS, POLE2 Y311F. To be noted: bait POLE2_Y311F.
Assay [4] relates to POLE2 E520A. Kind of assay: Proximity labeling MS, POLE2 E520A. To be noted: bait POLE2_E520A.
For assay [5], the system named is POLE2 S522A. Kind of assay: Proximity labeling MS, POLE2 S522A. To be noted: bait POLE2_S522A.

B1: PYGB (protein, UniProt P11216 2-843, looked up)
Glycogen phosphorylase, brain …: AKPLTDSEKRKQISVRGLAGLGDVAEVRKSFNRHLHFTLVKDRNVATPRDYFFALAHTVRDHLVGRWIRTQQHYYERDPKRIYYLSLEFYMGRTLQNTMVNLGLQNACDEAIYQLGLDLEELEEIEEDAGLGNGGLGRLAACFLDSMATLGLAAYGYGIRYEFGIFNQKIVNGWQVEEADDWLRYGNPWEKARPEYMLPVHFYGRVEHTPDGVKWLDTQVVLAMPYDTPVPGYKNNTVNTMRLWSAKAPNDFKLQDFNVGDYIEAVLDRNLAENISRVLYPNDNFFEGKELRLKQEYFVVAATLQDIIRRFKSSKFGCRDPVRTCFETFPDKVAIQLNDTHPALSIPELMRILVDVEKVDWDKAWEITKKTCAYTNHTVLPEALERWPVSMFEKLLPRHLEIIYAINQRHLDHVAALFPGDVDRLRRMSVIEEGDCKRINMAHLCVIGSHAVNGVARIHSEIVKQSVFKDFYELEPEKFQNKTNGITPRRWLLLCNPGLADTIVEKIGEEFLTDLSQLKKLLPLVSDEVFIRDVAKVKQENKLKFSAFLEKEYKVKINPSSMFDVHVKRIHEYKRQLLNCLHVVTLYNRIKRDPAKAFVPRTVMIGGKAAPGYHMAKLIIKLVTSIGDVVNHDPVVGDRLKVIFLENYRVSLAEKVIPAADLSQQISTAGTEASGTGNMKFMLNGALTIGTMDGANVEMAEEAGAENLFIFGLRVEDVEALDRKGYNAREYYDHLPELKQAVDQISSGFFSPKEPDCFKDIVNMLMHHDRFKVFADYEAYMQCQAQVDQLYRNPKEWTKKVIRNIACSGKFSSDRTITEYAREIWGVEPSDLQIPPPNIPRD
In the case of B1, the pKapp_sign in assay [1] is recorded as 4.228.

B2: ATAD3A (protein, UniProt Q9NVI7 2-586, looked up)
ATPase family AAA …: SWLFGINKGPKGEGAGPPPPLPPAQPGAEGGGDRGLGDRPAPKDKWSNFDPTGLERAAKAARELEHSRYAKDALNLAQMQEQTLQLEQQSKLKEYEAAVEQLKSEQIRAQAEERRKTLSEETRQHQARAQYQDKLARQRYEDQLKQQQLLNEENLRKQEESVQKQEAMRRATVEREMELRHKNEMLRVEAEARARAKAERENADIIREQIRLKAAEHRQTVLESIRTAGTLFGEGFRAFVTDWDKVTATVAGLTLLAVGVYSAKNATLVAGRFIEARLGKPSLVRETSRITVLEALRHPIQVSRRLLSRPQDALEGVVLSPSLEARVRDIAIATRNTKKNRSLYRNILMYGPPGTGKTLFAKKLALHSGMDYAIMTGGDVAPMGREGVTAMHKLFDWANTSRRGLLLFVDEADAFLRKRATEKISEDLRATLNAFLYRTGQHSNKFMLVLASNQPEQFDWAINDRINEMVHFDLPGQEERERLVRMYFDKYVLKPATEGKQRLKLAQFDYGRKCSEVARLTEGMSGREIAQLAVSWQATAYASEDGVLTEAMMDTRVQDAVQQHQQKMCWLKAEGPGRGDEPSPS
For B2, the pKapp_sign in assay [1] turned out to be 4.126.

B3: IVD (protein, UniProt P26440 33-426, looked up)
Isovaleryl-CoA dehydrogenase, …: HSLLPVDDAINGLSEEQRQLRQTMAKFLQEHLAPKAQEIDRSNEFKNLREFWKQLGNLGVLGITAPVQYGGSGLGYLEHVLVMEEISRASGAVGLSYGAHSNLCINQLVRNGNEAQKEKYLPKLISGEYIGALAMSEPNAGSDVVSMKLKAEKKGNHYILNGNKFWITNGPDADVLIVYAKTDLAAVPASRGITAFIVEKGMPGFSTSKKLDKLGMRGSNTCELIFEDCKIPAANILGHENKGVYVLMSGLDLERLVLAGGPLGLMQAVLDHTIPYLHVREAFGQKIGHFQLMQGKMADMYTRLMACRQYVYNVAKACDEGHCTAKDCAGVILYSAECATQVALDGIQCFGGNGYINDFPMGRFLRDAKLYEIGAGTSEVRRLVIGRAFNADFH
Regarding B3, the pKapp_sign in assay [1] is listed as 4.276.

B4: ABT1 (protein, UniProt Q9ULW3 1-272, looked up)
Activator of basal …: MEAEESEKAATEQEPLEGTEQTLDAEEEQEESEEAACGSKKRVVPGIVYLGHIPPRFRPLHVRNLLSAYGEVGRVFFQAEDRFVRRKKKAAAAAGGKKRSYTKDYTEGWVEFRDKRIAKRVAASLHNTPMGARRRSPFRYDLWNLKYLHRFTWSHLSEHLAFERQVRRQRLRAEVAQAKRETDFYLQSVERGQRFLAADGDPARPDGSWTFAQRPTEQELRARKAARPGGRERARLATAQDKARSNKGLLARIFGAPPPSESMEGPSLVRDS
On to B4, for which the AvgSpec is recorded as 7.33 in assay [2] (mean of 6 replicates), 9.67 in assay [3] (mean of 3 replicates), 9.33 in assay [4] (mean of 3 replicates) and 14.33 in assay [5] (mean of 3 replicates). In addition, the Spec in assay [2] (replicate 1) amounted to 9; in assay [2] (replicate 2), 11; in assay [2] (replicate 3) it was 13; in assay [2] (replicate 4), 4; in assay [2] (replicate 5), 2; in assay [2] (replicate 6) it was 5. Also, the Spec in assay [3] (replicate 1) stood at 11; in assay [3] (replicate 2), 8; in assay [3] (replicate 3), 10; in assay [4] (replicate 1) it was 14; in assay [4] (replicate 2) it was 7; in assay [4] (replicate 3), 7. In addition, the Spec worked out at 12 in assay [5] (replicate 1), 14 in assay [5] (replicate 2) and 17 in assay [5] (replicate 3). For the same molecule, the SpecSum in assay [2] (sum of 6 replicates) was determined as 44; in assay [3] (sum of 3 replicates), 29; in assay [4] (sum of 3 replicates) it was 28; in assay [5] (sum of 3 replicates) it was 43. For the same molecule, the FoldChange in assay [2] (versus control counts) worked out at 6.05; in assay [3] (versus control counts), 7.97; in assay [4] (versus control counts), 7.7; in assay [5] (versus control counts), 11.82.

B5: SEC14L4 (protein, UniProt Q9UDX3 1-406, looked up)
SEC14-like protein 4: MSSRVGDLSPQQQEALARFRENLQDLLPILPNADDYFLLRWLRARNFDLQKSEDMLRRHMEFRKQQDLDNIVTWQPPEVIQLYDSGGLCGYDYEGCPVYFNIIGSLDPKGLLLSASKQDMIRKRIKVCELLLHECELQTQKLGRKIEMALMVFDMEGLSLKHLWKPAVEVYQQFFSILEANYPETLKNLIVIRAPKLFPVAFNLVKSFMSEETRRKIVILGDNWKQELTKFISPDQLPVEFGGTMTDPDGNPKCLTKINYGGEVPKSYYLCEQVRLQYEHTRSVGRGSSLQVENEILFPGCVLRWQFASDGGDIGFGVFLKTKMGEQQSAREMTEVLPSQRYNAHMVPEDGSLTCLQAGVYVLRFDNTYSRMHAKKLSYTVEVLLPDKASEETLQSLKAMRPSPTQ
As to B5, the pKapp_sign in assay [1] is recorded as 5.194.

B6: NUP35 (protein, UniProt Q8NFH5 1-326, looked up)
Nucleoporin NUP35: MAAFAVEPQGPALGSEPMMLGSPTSPKPGVNAQFLPGFLMGDLPAPVTPQPRSISGPSVGVMEMRSPLLAGGSPPQPVVPAHKDKSGAPPVRSIYDDISSPGLGSTPLTSRRQPNISVMQSPLVGVTSTPGTGQSMFSPASIGQPRKTTLSPAQLDPFYTQGDSLTSEDHLDDSWVTVFGFPQASASYILLQFAQYGNILKHVMSNTGNWMHIRYQSKLQARKALSKDGRIFGESIMIGVKPCIDKSVMESSDRCALSSPSLAFTPPIKTLGTPTQPGSTPRISTMRPLATAYKASTSDYQVISDRQTPKKDESLVSKAMEYMFGW
As to B6, the pKapp_sign in assay [1] stood at 4.141.

B7: ASPA (protein, UniProt P45381 1-313, looked up)
Aspartoacylase: MTSCHIAEEHIQKVAIFGGTHGNELTGVFLVKHWLENGAEIQRTGLEVKPFITNPRAVKKCTRYIDCDLNRIFDLENLGKKMSEDLPYEVRRAQEINHLFGPKDSEDSYDIIFDLHNTTSNMGCTLILEDSRNNFLIQMFHYIKTSLAPLPCYVYLIEHPSLKYATTRSIAKYPVGIEVGPQPQGVLRADILDQMRKMIKHALDFIHHFNEGKEFPPCAIEVYKIIEKVDYPRDENGEIAAIIHPNLQDQDWKPLHPGDPMFLTLDGKTIPLGGDCTVYPVFVNEAAYYEKKEAFAKTTKLTLNAKSIRCCLH
As to B7, the pKapp_sign in assay [1] was 5.902.

B8: URM1 (protein, UniProt Q9BTM9 1-101, looked up)
Ubiquitin-related modifier 1: MAAPLSVEVEFGGGAELLFDGIKKHRVTLPGQEEPWDIRNLLIWIKKNLLKERPELFIQGDSVRPGILVLINDADWELLGELDYQLQDQDSVLFISTLHGG
In the case of B8, the pKapp_sign in assay [1] came to 4.219.
